The source of these data is patent US20130065819.

The target of series [1] is N-terminal FLAG tagged TOE1 mutant D373A.
Series [2] addresses N-terminal FLAG tagged TOE1 mutant D195A.
The target of series [3] is N-terminal FLAG tagged TOE1 mutant D282A.
Series [4] deals with human TOE1 (Target of Egr1).
For series [5], the target named is N-terminal FLAG tagged TOE1 mutant D363A.
The target of series [6] is TOE1 mutated at the ExPASy-predicted caspase-1 cleavage site FTAD (position 214-217).

B1: recombinant caspase-1 (Calbiochem) (protein)
chain: NPAMPTSSGSEGNVKLCSLEEAQRIWKQKSAEIYPIMDKSSRTRLALIICNEEFDSIPRRTGAEVDITGMTMLLQNLGYSVDVKKNLTASDMTTELEAFAHRPEHKTSDSTFLVFMSHGIREGICGKKHSEQVPDILQLNAIFNMLNTKNCPSLKDKPKVIIIQACRGDSPGVVWFKDSVGVSGNLSLPTTEEFEDDAIKKAHIEKDFIAFCSSTPDNVSWRHPTMGSVFIGRLIEHMQEYACSCDVEEIFRKVRFSFEQPDGRAQMPTTERVTLTRCFYLFPGH
Consider B1, for which the “in vitro caspase-1 cleavage of immunoprecipitated mutant, Western blot” value in series [1] is “caspase-1 cleaves TOE1 at residues 363 and 373 as evidenced by the lack of a 17 kDa fragment in the TOE1 mutants containing an alanine at residues 363 and 373”; in series [2] it was “two of these mutations were found to prevent the appearance of a cleavage product of TOE1 upon incubation with caspase-1. These consisted of the D195 and D282 residues within the sites GLID and DIHD respectively”; in series [3] it was “two of these mutations were found to prevent the appearance of a cleavage product of TOE1 upon incubation with caspase-1. These consisted of the D195 and D282 residues within the sites GLID and DIHD respectively”; in series [5], “caspase-1 cleaves TOE1 at residues 363 and 373 as evidenced by the lack of a 17 kDa fragment in the TOE1 mutants containing an alanine at residues 363 and 373”. For the same protein, in series [4], the “in vitro digestion of immunoprecipitated TOE1 with recombinant caspase-1, Western blot” value is “We found that TOE1 was indeed processed by caspase-1, and generated multiple cleaved forms”. For the same protein, the “in vitro caspase-1 cleavage of mutant, Western blot” value in series [6] was “when the caspase-1 cleavage site predicted using the ExPASy software was mutated (FTAD), in vitro cleavage was maintained”.
